The target of this assay is T1, FZD8 cysteine-rich domain (CRD), MYC-tagged and GPI-anchored on CHO cells (human).
T1 sequence (chain, GPI anchor): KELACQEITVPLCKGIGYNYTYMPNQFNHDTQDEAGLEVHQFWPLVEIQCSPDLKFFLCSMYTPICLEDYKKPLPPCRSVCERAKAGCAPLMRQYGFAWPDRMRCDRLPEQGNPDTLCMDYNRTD
Description: flow cytometry, CHO-CRD cells. For orientation: Flow cytometry measures light scatter and fluorescence of single cells or particles in a stream.

B1: Fab-2925 (Fab, V domains shown)
VH: EVQLVESGGGLVQPGGSLRLSCAASGFNLSYSSMHWVRQAPGKGLEWVASIYPSYGSTYYADSVKGRFTISADTSKNTAYLQMNSLRAEDTAVYYCARYGYFGLDYWGQGTLVTVSS
VL: DIQMTQSPSSLSASVGDRVTITCRASQSVSSAVAWYQQKPGKAPKLLIYSASSLYSGVPSRFSGSRSGTDFTLTISSLQPEDFATYYCQQAWVYASLFTFGQGTKVEIK
For the molecule B1, the median fluorescence was determined as 7.7.

B2: Fab-2905 (Fab, V domains shown)
VH: EVQLVESGGGLVQPGGSLRLSCAASGFNLSYYYMHWVRQAPGKGLEWVASIYSSYSYTSYADSVKGRFTISADTSKNTAYLQMNSLRAEDTAVYYCARSGYALDYWGQGTLVTVSS
VL: DIQMTQSPSSLSASVGDRVTITCRASQSVSSAVAWYQQKPGKAPKLLIYSASSLYSGVPSRFSGSRSGTDFTLTISSLQPEDFATYYCQQSSWYYGYPFTFGQGTKVEIK
B2 yielded a median fluorescence of 8.17.

(Values after US20210253718A1, “FRIZZLED5 PROTEIN-BINDING AGENTS” (Modmab Therapeutics Corporation, priority 2016, published 2021).)
